These results are taken from patent publication US20050009067A1, “Expression profile of pancreatic cancer” (priority 2003, published 2005).

The test system of one data set is S100 proteins. Particulars: Okada et al. 2002; cited from earlier work.
Data set [1] concerns NIH3T3 cells. The data set can be described thus: NIH3T3 cell survival after apoptotic insults (5-FU, anoikis on polyHEMA). It counts as cell-based. As for the experimental part: Apoptosis was induced in NIH3T3 cells either by prevention of cell adhesion to a solid substrate (anoikis) or by use of 5-flurouracil. To prevent cell adhesion, 6 well plates were covered (3 ml/well) with a solution of polyhydroxyethylmethacrylate (polyHEMA; Sigma-Aldrich) dissolved at 10 mg/ml in ethanol. Plates were kept at 37° C. for 5 days to evaporate solvent completely. Cells were resuspended at 5×10^4 cells/ml and were cultured (1 ml/well) in DMEM medium containing 10% fetal calf serum for different times on polyHEMA coated dishes at 37° C. and 5% CO2. Subsequently, cells were subjected to cell viability studies using MTS or recovered and analyzed for caspase 3 activity.

Data set [2] deals with RAGE (endogenous, of NIH3T3 cells) (UniProt Q62151). The data set can be described thus: cell-based or functional assay.
RAGE (endogenous, of NIH3T3 cells), sequence (Q62151 23-402 limits assumed): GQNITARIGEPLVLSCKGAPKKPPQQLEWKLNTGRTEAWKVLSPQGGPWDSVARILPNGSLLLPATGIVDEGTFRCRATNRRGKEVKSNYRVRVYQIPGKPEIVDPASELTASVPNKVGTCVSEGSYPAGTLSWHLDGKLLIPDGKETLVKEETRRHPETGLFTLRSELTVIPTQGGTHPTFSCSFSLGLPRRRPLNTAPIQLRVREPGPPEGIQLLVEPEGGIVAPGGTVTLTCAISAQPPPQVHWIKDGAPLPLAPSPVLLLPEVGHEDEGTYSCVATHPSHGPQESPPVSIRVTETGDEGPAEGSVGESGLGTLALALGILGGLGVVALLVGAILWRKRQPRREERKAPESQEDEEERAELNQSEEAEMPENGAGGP
For data set [3], the system named is NIH3T3 cells. The data set can be described thus: Cell growth (MTS) of NIH3T3 cells with exogenously applied purified S100P. Type of data set: cell-based. The protocol: Cell growth was analyzed by using MTS reagent (Promega, Madison, Wis.) as per manufactures directions. For studies on the effects of S100P expression, vector alone and three different clonal S100P stably transfected cell lines (1000 cells/well) were seeded into 96 well plates and cell growth was studied from 0-120 hrs. For studies on the effects of exogenously applied S100P, purified S100P was added at indicated concentrations for specific times. MTS was added to the wells one hour before taking the photometric reading.
Full length S100P cDNA was cloned into pTrcHis2 vector (Invitrogen, Carlsbad, Calif.) and transformed into one shot TOP10 competent E.coli. The bacterial culture was incubated at 37° C. to an OD600=0.6, then IPTG (1 mM) was added and the bacteria were cultured for another 3 hrs. His-S100P was purified using Probond resin column as described by the manufacturer (Invitrogen, Carlsbad, Calif.). The fraction was further dialyzed against 10 mM Tris, pH 8.0, containing 01% Triton X 100 overnight at 4° C. using a Slide-A-Lyzer 10K (Pierce, Rockford, Ill.). Dialyzed protein was further concentrated by Centricon centrifugal filter device YM10 (Millipore, Bedford, Mass.). The purified S100P protein was confirmed by western blot and ELISA and used for in vitro experiments.

The test system of a further data set is Erk 1 & 2. The data set can be described thus: Erk 1 & 2 phosphorylation in NIH3T3 cells (western blot). Type of data set: cell-based. The protocol: Western blot analysis was utilized for the detection of S100P, RAGE, as well as activated Erks and caspase 3 by minor modifications of previously published methods. Cell lysates were prepared and separated by SDS polyacrylimide gel electrophoresis and transferred to nitrocellulose. Membranes were blocked by overnight incubation at 4° C. in 5% milk solution. S100P was detected usingmonoclonal antibodies (Transduction Laboratories, San Diego, Calif.) by incubating the membrane overnight at 4° C. in antibody diluted 1:100 in 5% milk solution. RAGE was detected using goat polyclonal antibodies (Santa Cruz, Santa Cruz, Calif.) by incubating the transferred membrane in for one hour at room temperature with antibody diluted 1:100 in 5% milk solution. Caspase 3 activation was estimated by detection of pro-caspase 3 and active caspase 3 fragments using rabbit polyclonal antibodies against full length caspase 3 (Santacruz Biotech, Calif.) by incubating the membrane at 4° C. for overnight with antibody diluted 1:100 in 5% milk solution. Erk activation was estimated by detection of phosphorylated forms of Erk 1 and 2 using phospho-p44/42 MAP kinase (Thr202/Tyr204) antibody (Cell Signaling, Beverly, Mass.) and, as a loading control after striping, a rabbit polyclonal antibody for total Erk 1 & 2 (Santa Cruz, Santa Cruz, Calif.) by incubating the membrane at 4° C. overnight with antibody diluted 1:100 in 5% milk solution. Second antibody anti-mouse, anti-rabbit, or anti-goat IgG+HRP was incubated for one hour at room temperature and the signal was detected by ECL detection system (Amersham) as per manufacturer protocol.

For the next data set, the system named is NF-κB. The data set can be described thus: NF-κB electrophoretic mobility shift assay in NIH3T3 cells. It counts as cell-based. The protocol:
Nuclear extracts were prepared and used for electrophoretic mobility shift assays (EMSAs) as previously described (Han et al., Am. J. Physiol. 277:C74 [1999]). For NF-κB DNA binding the reaction was started by addition of 10,000 cpm of the 22-base pair oligonucleotide 5′-AGTTGAGGGGACTTTCCCAGGC-3′ (SEQ ID NO:7) containing the NF-κB consensus sequence that had been labeled with [γ-32P]-ATP (10 mCi/mmol) by T4 polynucleotide kinase. The reaction was allowed to proceed for 30 min at room temperature. For cold competition experiments unlabeled NF-κB oligonucleotide or OCT1 oligonucleotide as a nonspecific competitor (300×) were added to the binding reaction 5 min before the addition of the radiolabeled probe. For antibody supershift assays 2 μl of specific antibodies to NF-κB protein subunits p65, p50, and c-Rel were incubated with nuclear extracts for 1 hour at room temperature prior to the addition of labeled probe. All reaction mixtures were subjected to PAGE on 4.5% gel in 0.5×TBE buffer at 200 V. Gels were dried and directly exposed to the membranes were exposed to a B-1 phosphoimaging screen and visualized by the use of GS-250 Molecular Imaging System (Bio-Rad Laboratories, Richmond, Calif.).
A general note: Mobility shift assays separate free from complexed probe on a gel.

Another data set addresses T1, RAGE (Mus musculus, UniProt Q62151).
T1 construct: RAGE was present in the S100P complexes from wild-type NIH3T3 cells incubated with exogenous S100P and S100P antibody; endogenous in cells; host or cells: NIH3T3 cell lysates for RAGE; E. coli TOP10 for the added His-S100P
The data set can be described thus: Co-immunoprecipitation (pull-down) of S100P with RAGE from NIH3T3 lysates. It counts as binding. Particulars: NIH3T3 lysates incubated with S100P and S100P antibody. As for the experimental part:
For co-immunoprecipitation experiments, cell lysates were incubated in the absence or presence of S100P (1 μg) at 4° C. overnight. S100P was immunoprecipitated using mouse monoclonal antibody against S100P (Transduction Laboratories, San Diego, Calif.), for 6 hours at 4° C. and IgG immobolized beads (Pierce, Rockford, Ill.). Antibody associated proteins were electrophoresed on 10% polyacrylamide gel and transferred to nitrocellulose membrane. Transferred membrane was blocked by 5% milk solution overnight at 4° C. RAGE was detected as described.

T1 sequence (Q62151 23-402): as the sequence (Q62151 23-402 limits assumed) above

Turning to `CN(C)CC/C=C1/c2ccccc2COc2ccc(CC(=O)O)cc21` [olopatadine], the “interaction with S100 proteins” value in the data set with S100 proteins was “interact with S100 proteins”.

Take `O=c1[nH]cc(F)c(=O)[nH]1` [5-FU, 5-fluorouracil, reference compound]: the “killing of NIH3T3 cells” value with NIH3T3 cells [1] (wild-type vs S100P expressing NIH3T3 cells, 5-FU 150 ug/ml (FIG. 5B)) is listed as “efficiently kill wild-type but not S100P expressing NIH3T3 cells”.

As to `CC(C)c1ccc2oc3nc(N)c(C(=O)O)cc3c(=O)c2c1` [amlexanox], the “interaction with S100 proteins” value with S100 proteins is reported as “interact with S100 proteins”.

In data set [2], “purified His-S100P protein (His-tagged fusion protein of full length S100P made in E. coli) (from UniProt P25815 1-95) (ligand)” registered an NIH3T3 cell proliferation, fold over control of 2 fold and a survival of NIH3T3 cells after 5 FU of 1 nM.

In data set [2], “synthetic peptide derived from amphoterin (RAGE antagonist peptide)” yielded an inhibition of S100P activation of Erk of 50 nM and an inhibition of S100P activation of Erk, complete of 500 nM.

B1: S100P: purified S100P generated as a His-tagged fusion protein in bacteria (protein, UniProt P25815 1-95, looked up)
Protein S100-P: MTELETAMGMIIDVFSRYSGSEGSTQTLTKGELKVLMEKELPGFLQSGKDKDAVDKLLKDLDANGDAQVDFSEFIVFVAAITSACHKYFEKAGLK
modifications: His tag
notes: purified S100P generated as a His-tagged fusion protein in bacteria
B1: the “concentration giving maximal effect on cell proliferation” value with NIH3T3 cells [3] (NIH3T3 cells) was found to be 100 nM. The “concentration at which effects on cell proliferation were noted” value in the data set on NIH3T3 cells [3] (purified S100P added to NIH3T3 cells, dose-response) stood at 10 pM. Besides, the “time after which significant increase in cell proliferation was noted” value with NIH3T3 cells [3] (time-course) stood at 48 h. Moreover, in the data set on NIH3T3 cells [3] (with 100 nM S100P), the “maximal effect on cell proliferation” value is around 2 fold over control. Besides, in the data set on NIH3T3 cells [1] (S100P added to culture medium, NIH3T3), the “concentration at which protection from the effects of 5 FU was noted” value came to 1 nM. Moreover, the “time after which significant protection from anoikis was noted” value with NIH3T3 cells [1] (time-course) stood at 36 h. Also, in the data set with Erk 1 & 2 (dose-response), the “concentration at which effects on Erk phosphorylation were noted” value was 10 pM and the “concentration giving maximal effects on Erk phosphorylation” value is reported as 100 nM. In the data set with Erk 1 & 2 (purified S100P, NIH3T3), the “duration Erk phosphorylation remained significantly elevated” value is “at least 2 hours”, the “time of maximal increase of Erk phosphorylation” value was 30 min and the “time to significant Erk 1 & 2 phosphorylation” value was at most 10 min. In addition, in the data set with NF-κB (S100P, NIH3T3, EMSA), the “duration increase in NF-κB DNA binding was maintained” value was “at least 2 hours” and the “time to initiation of increase in NF-κB DNA binding” value was at most 10 min. Further, in the data set with NF-κB (concentration dependence), the “concentration at which significant effects on NF-κB activation were noted” value is reported as 0.1 nM and the “concentration giving maximal effect on NF-κB activation” value was determined as 100 nM. Besides, in the data set with RAGE, the “interaction with RAGE (co-immuno-precipitation)” value is “can interact directly with RAGE”.
